Two molecules from patent US20190187132A1 can be followed below.

Test [1] addresses Trichinella spiralis lysate.
Test [2] deals with Trichinella spiralis lysate. This is another data set of the same source.
The target in test [3] is Trichinella spiralis E/S antigen.

Read-outs that look alike come from different tables or passages of the source.

B1: Anti-[TRISP][18H1] (antibody, V domains shown)
VH: QVQLKESGPGLVQPSQTLSLTCTVSGLSLTSNSVGWIRQPPGKGLEWMGIIWSNGGTDYNSAIKSRLSISRDTSKSQVFLKMHSLQTEDTAMYFCARGPYYGSYRLGYFDYWGQGVMVTVSS
VL: DVVMTQSPSSLAVSAGETVTLNCQSSQSLLYSGTQNNYLAWYQQKPGQSPKLLISWASTRQSGVPLRFIGSGSGTDFTLTITSVQAEDLAIYYCQQFYDTPLTFGSGTKLEIK
For the molecule B1, the values for the detection limit in test [1] and in test [2] were 1 ng/mL and 10 µg/mL, respectively.

B2: Anti-[TRISP][C9] (antibody, V domains shown)
VH: AVTLDESGGGLQTPGGALSLVCKASGFSISSYSMQWVRQAPGKGLEWVAGIYYDGNTWYAPAVKGRATISRDNGQSTVRLRLNNLRAEDTATYFCAKYAGGYSIDAWGHGTEVIVSS
VL: ALTQPSSVSANPGETVKITCSGSSGSYGWYQQKSPGSGPVTVIYYNDKRPSDIPSRFSGSASGSTATLTITGVQAEDEAVYFCGGYDSSTYVGIFGAGTTLTVL
As to B2, the detection limit in test [3] is 6 ng/mL.
